Data reported in patent publication US20250171542A1 (ADEPT THERAPEUTICS, published 2025).

T1: BH-H2 (Sino Biological, Cat #11559-H08H) (UniProt O75144 19-258)
T1 sequence (looked up): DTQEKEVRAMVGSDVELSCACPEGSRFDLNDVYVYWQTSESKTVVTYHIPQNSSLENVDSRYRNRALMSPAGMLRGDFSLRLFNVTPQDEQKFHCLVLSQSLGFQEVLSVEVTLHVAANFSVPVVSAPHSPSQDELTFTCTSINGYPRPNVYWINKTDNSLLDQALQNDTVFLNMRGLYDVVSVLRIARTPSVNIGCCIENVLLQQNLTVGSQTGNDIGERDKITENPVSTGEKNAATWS

T2: CD80 (Sino Biological, Cat #10698-H08H) (UniProt P33681 35-242)
T2 sequence (looked up): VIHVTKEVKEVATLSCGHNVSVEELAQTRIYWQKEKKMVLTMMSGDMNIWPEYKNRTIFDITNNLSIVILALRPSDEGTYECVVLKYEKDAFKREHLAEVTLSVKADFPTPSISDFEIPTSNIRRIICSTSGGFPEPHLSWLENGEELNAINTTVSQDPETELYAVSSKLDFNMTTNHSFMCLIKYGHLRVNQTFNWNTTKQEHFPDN

T3: B7-H3 (Sino Biological, Cat #11188-H08H) (UniProt Q5ZPR3 29-461)
T3 sequence (looked up): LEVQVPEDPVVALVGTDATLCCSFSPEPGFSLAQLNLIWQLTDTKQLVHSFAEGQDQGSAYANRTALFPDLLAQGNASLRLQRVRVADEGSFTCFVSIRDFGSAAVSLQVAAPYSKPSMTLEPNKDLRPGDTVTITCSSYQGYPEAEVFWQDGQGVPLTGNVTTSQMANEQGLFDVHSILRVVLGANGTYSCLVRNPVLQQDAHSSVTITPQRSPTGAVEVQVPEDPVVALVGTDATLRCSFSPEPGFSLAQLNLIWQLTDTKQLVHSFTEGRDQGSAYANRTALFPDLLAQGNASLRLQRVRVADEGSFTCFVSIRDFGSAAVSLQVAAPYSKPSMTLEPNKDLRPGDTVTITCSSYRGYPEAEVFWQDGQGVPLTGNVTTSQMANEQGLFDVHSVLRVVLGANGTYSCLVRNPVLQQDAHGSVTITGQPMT

T4: PD-L2 (Sino Biological, Cat #10292-H08H) (UniProt Q9BQ51 20-219)
T4 sequence (looked up): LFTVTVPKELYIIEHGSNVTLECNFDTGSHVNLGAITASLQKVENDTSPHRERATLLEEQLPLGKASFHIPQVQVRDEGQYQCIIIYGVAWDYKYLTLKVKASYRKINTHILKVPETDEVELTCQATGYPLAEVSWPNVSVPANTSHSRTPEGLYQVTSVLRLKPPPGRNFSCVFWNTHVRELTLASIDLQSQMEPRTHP

T5: canine PD-L1 (Acro Biosystems, Cat #PDL-C52H4) (canine, UniProt E2RKZ5 19-236)
T5 construct: not shown: The vendor's tag, probably a polyhistidine tag
T5 sequence: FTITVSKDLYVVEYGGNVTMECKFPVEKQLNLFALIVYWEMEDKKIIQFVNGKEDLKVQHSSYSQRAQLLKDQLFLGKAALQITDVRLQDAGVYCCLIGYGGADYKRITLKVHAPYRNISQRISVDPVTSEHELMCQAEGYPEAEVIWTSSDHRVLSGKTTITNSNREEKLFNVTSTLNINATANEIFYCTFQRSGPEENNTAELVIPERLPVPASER

T6: CD86 (Sino Biological, Cat #10699-H08H) (UniProt P42081 24-245)
T6 sequence (looked up): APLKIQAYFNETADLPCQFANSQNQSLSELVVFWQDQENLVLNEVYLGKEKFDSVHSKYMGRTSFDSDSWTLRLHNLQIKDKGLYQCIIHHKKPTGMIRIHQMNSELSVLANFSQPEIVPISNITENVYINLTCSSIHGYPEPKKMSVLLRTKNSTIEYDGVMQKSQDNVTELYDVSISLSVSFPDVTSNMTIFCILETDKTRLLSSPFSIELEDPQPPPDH


Experiments:
[1] = biological target: T7, human PD-L1-His (Sino Biological, Cat #10084-H08H) (human, UniProt Q9NZQ7 19-238); experiment: ELISA, coated human PD-L1-His
T7 construct: Bought protein; also called human PD-L1 ECD-His; recombinant human PD-L1-His protein; not shown: His tag
T7 sequence (Q9NZQ7 19-238): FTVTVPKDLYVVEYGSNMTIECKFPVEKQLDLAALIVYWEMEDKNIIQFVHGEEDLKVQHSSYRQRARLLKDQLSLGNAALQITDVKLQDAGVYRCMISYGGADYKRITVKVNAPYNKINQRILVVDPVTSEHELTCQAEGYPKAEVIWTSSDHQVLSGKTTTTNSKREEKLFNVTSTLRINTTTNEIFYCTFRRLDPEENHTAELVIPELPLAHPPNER
Experimental: Briefly, Maxisorp plates (Nunc) were coated with 100 ul/well of 0.5 μg/ml human PD-L1-His (Sino Biological, Cat #10084-H08H) or cynomolgus PD-L1-His (Sino Biological, Cat. 90251-C08H) protein diluted in 1×PBS (GIBCO) overnight at 4° C. Plates were washed three times with 300 μl/well washing buffer (1×PBST, diluted from 20×PBST (Thermo Scientific) with distilled water)) and then blocked with 300 μl/well of blocking buffer (1×PBST/I % BSA) for 2 hours at RT on shaker (100 rpm). Plates were washed and added with 100 μl/well of testing antibodies, which were serial diluted with assay buffer (PBST/1% BSA). The antibodies were incubated at room temperature for 2 hours on plate shaker at 100 rpm. Plates were washed. One hundred microliter of horseradish peroxidase (HRP) conjugated detection antibody was added into each well and incubated at room temperature for 1 hour on plate shaker at 100 rpm. Plates were washed and added with 100 μl/well TMB substrate for color development at room temperature in dark for up to 10 minutes. After addition of 50 μl/well of stop solution (1N H₂SO₄), plates were read at 450 nm on a plate reader (SpectraMax M5).
Anti-HEL isotype control (Biolntron) was used as negative control.

[2] = biological target: human PD-L1 expressed on cell surface (human, UniProt Q9NZQ7 19-290); experiment: cell-based or functional assay
Chain of human PD-L1 expressed on cell surface (Q9NZQ7 19-290 limits assumed): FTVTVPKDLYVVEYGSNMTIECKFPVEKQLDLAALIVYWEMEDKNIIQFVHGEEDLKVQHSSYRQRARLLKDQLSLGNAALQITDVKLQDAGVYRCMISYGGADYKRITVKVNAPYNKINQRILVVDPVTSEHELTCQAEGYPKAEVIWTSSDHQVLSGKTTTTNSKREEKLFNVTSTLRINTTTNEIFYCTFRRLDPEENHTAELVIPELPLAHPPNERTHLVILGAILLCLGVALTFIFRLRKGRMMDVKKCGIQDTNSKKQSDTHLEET

[3] = biological target: T8, cynomolgus PD-L1-His (Sino Biological, Cat. 90251-C08H) (cynomolgus, UniProt Q9NZQ7 19-238 (human entry)); experiment: BLI (Gator), cynomolgus PD-L1
T8 construct: Bought protein; also called Cyno PD-L1; Cynomolgus PD-L1 ECD-His; not shown: His tag
T8 sequence (Q9NZQ7 other isoform, or with tags, fused parts or gaps C08H C08H limits assumed): as the sequence (Q9NZQ7 19-238) above, with A33T, A34S, S62N, R68Q, Q82R, F173L, T185A, T192I, H215L counted along it

[4] = biological target: T1, BH-H2 (Sino Biological, Cat #11559-H08H); experiment: ELISA
[5] = biological target: T2, CD80 (Sino Biological, Cat #10698-H08H); experiment: ELISA
[6] = biological target: T3, B7-H3 (Sino Biological, Cat #11188-H08H); experiment: ELISA
[7] = biological target: T4, PD-L2 (Sino Biological, Cat #10292-H08H); experiment: ELISA
[8] = biological target: T5, canine PD-L1 (Acro Biosystems, Cat …); experiment: ELISA
[9] = biological target: T9, rat PD-L1 (Sino Biological, Cat #80450-R08H) (rat, UniProt D4AE25 19-239); experiment: ELISA
T9 construct: not shown: The vendor's polyhistidine tag
T9 sequence (D4AE25 entry or part of it R08H R08H limits assumed): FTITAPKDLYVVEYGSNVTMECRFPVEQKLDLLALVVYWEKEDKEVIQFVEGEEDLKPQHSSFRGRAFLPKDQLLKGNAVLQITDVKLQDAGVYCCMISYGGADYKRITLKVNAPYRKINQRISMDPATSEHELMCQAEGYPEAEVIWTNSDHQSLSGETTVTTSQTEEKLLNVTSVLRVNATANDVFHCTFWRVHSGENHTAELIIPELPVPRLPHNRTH

[10] = biological target: T6, CD86 (Sino Biological, Cat #10699-H08H); experiment: ELISA

| Binder | EC50 [1] | Internalization (%), FACS, 0.25 µg/ml, 2 h [2] | Internalization (%), FACS, 0.25 µg/ml, 4 h [2] | Internalization (%), FACS, 0.5 µg/ml, 2 h [2] | Internalization (%), FACS, 0.5 µg/ml, 4 h [2] | Internalization (%), FACS, 1 µg/ml, 2 h [2] | Internalization (%), FACS, 1 µg/ml, 4 h [2] | Internalization (%), FACS, 2 µg/ml, 2 h [2] | Internalization (%), FACS, 2 µg/ml, 4 h [2] | Kd [3] | koff [3] | kon [3] | binding result [4] | binding result [5] | binding result [6] | binding result [7] | binding result [8] | binding result [9] | binding result [10] |
| --- | --- | --- | --- | --- | --- | --- | --- | --- | --- | --- | --- | --- | --- | --- | --- | --- | --- | --- | --- |
| 74F4 (antibody, human IgG1, V domains shown) VH: QEQLEESGGGLVQPEGSLTLTCTASGFSFSGDYYMSWVRQAPGKGLEWIASIYTGSLNTYYATWAKGRFTISLTSSTTVTLQMTSLTAADTATYFCARRNKNADYGHFDLWGPGTLVTVSS VL: YDMTQTPASVEVAVGGTVTIKCQASQSINDRLAWYQQSPGQPPKLLIYGASTLASGVPSRFKGSGSGTDFTLTISDLECADAATYYCQQGWTVSSLDNAFGGGTEVVAK | 0.0157 nM | 19% | 15.3% | 22.5% | 15.7% | 19.5% | 18.2% | 24.1% | 22% | 0.01 nM | 5e-06 s⁻¹ | 387000 M⁻¹ s⁻¹ | no binding | no binding | no binding | no binding | no binding | no binding | no binding |
| 55H3/76D6 (antibody, human IgG1, V domains shown) VH: QEQLEESGGGLVQPEGSLTLTCTVSGFSFSGDYYMSWVRQAPGKGLEWVASIYTGSLNSYYATWAKGRFTISLTSSTTVTLQMTSLTAADTATYFCARRNKNADYGHFDLWGPGTLVTVSS VL: YDMTQTPASVEVAVGGTVTIKCQASESINDRLAWYQQKPGQPPKLLIYAASTLASGVPSRFRGSGSGTDFTLTISDLECADAATYYCQQGWTVSSLDNAFGGGTEVVAM | 0.0199 nM | 22.9% | 20.6% | 20.8% | 19.9% | 22.1% | 17.9% | 24.2% | 22.2% | 0.03 nM | 1.1e-05 s⁻¹ | 307000 M⁻¹ s⁻¹ | no binding | no binding | no binding | no binding | no binding | no binding | no binding |

Further binders by falling EC50 [1], results first:

| EC50 [1] | Internalization (%), FACS, 0.25 µg/ml, 2 h [2] | Internalization (%), FACS, 0.25 µg/ml, 4 h [2] | Internalization (%), FACS, 0.5 µg/ml, 2 h [2] | Internalization (%), FACS, 0.5 µg/ml, 4 h [2] | Internalization (%), FACS, 1 µg/ml, 2 h [2] | Internalization (%), FACS, 1 µg/ml, 4 h [2] | Internalization (%), FACS, 2 µg/ml, 2 h [2] | Internalization (%), FACS, 2 µg/ml, 4 h [2] | Kd [3] | koff [3] | kon [3] | binding result [4] | binding result [5] | binding result [6] | binding result [7] | binding result [8] | binding result [9] | binding result [10] | Binder |
| --- | --- | --- | --- | --- | --- | --- | --- | --- | --- | --- | --- | --- | --- | --- | --- | --- | --- | --- | --- |
| 0.0184 nM | 22.9% | 22.1% | 20.7% | 19.8% | 23.8% | 20.6% | 24.7% | 26.5% | ≤ 0.03 nM | ≤ 1e-05 s⁻¹ | 313000 M⁻¹ s⁻¹ | no binding | no binding | no binding | no binding | no binding | no binding | no binding | 56E5 (antibody, human IgG1, V domains shown) VH: QEQLEESGGGLVQPEGSLTLTCTASGFSFSGDYYMSWVRQAPGKGLEWIASIYTGSLNTYYATWAKGRFTISLTSSTTVTLQMTSLTAADTATYFCARRHKNADYGHFDLWGPGTLVTVSS VL: YDMTQTPGSVEVAVGGTVTIKCQASQSINDRLAWYQQTPGQPPKLLIYGASTLASGVPSRFKGSGSGTEFTLTISDLECADAATYYCQQGWTVSSLDNAFGGGTEVVAK |
| 0.0172 nM | 16.3% | 16% | 16.1% | 19% | 15.3% | 9.1% | 6.5% | 4.8% | 0.25 nM | 8.7e-05 s⁻¹ | 349000 M⁻¹ s⁻¹ | no binding | no binding | no binding | no binding | no binding | no binding | no binding | 56H3 (antibody, human IgG1, V domains shown) VH: QEQLVESGGGLVQPEGSLTLTCTASEFSFSNNYYMSWVRQAPGKGLEWLGSIGIGSGITDYASWAKGRFTISKASSTTVTLQMTTLTAADTAIYFCARWTSGGGGFGLWGPGTLVTVSS VL: QVLTQTSSPVSAAVGGTVTINCQSSQTIYSDYLFWYQQKPGQPPKLLIYQTSTLASGVPSRFSGSGSGTQFTLTISGVQCDDAATYYCQGYYSGYIWTFGGGTEVVVN |
| 0.0146 nM | 18.5% | 18.3% | 15.5% | 14.7% | 13.7% | 13.7% | 12.7% | 9.7% | 0.03 nM | 1.3e-05 s⁻¹ | 390000 M⁻¹ s⁻¹ | no binding | no binding | no binding | no binding | no binding | no binding | no binding | 27A2 (antibody, human IgG1, V domains shown) VH: QEQLEESGGGLVQPEGSLTLTCTASGFSFSSNHYMSWVRQAPGKGLEWIGSIGVGSGITDYASWAKGRFTISKASSTTLTLQMTTLTAADTAIYFCARWTSGGGGFGLWGPGTLVTVSS VL: QVLTQTSSPVSAAVGGTVTINCQSSQTIYSDYLFWYQQTPGQPPKLLIYQTSTLASGVPSRFKGSGSGTEFTLTISEIQCDDAATYYCQGYYSGYIWTFGGGTEVVVR |
